According to US20190300618A1 (Merck Sharp & Dohme, published 2019):
Blank lines part the entries; values can stand above or below the molecule they belong to.

How the values were obtained:
[1] = target: T1, I46A; experiment: flow cytometry, CHO-K1; sub-column 1 of 2
T1 construct: also called hCD27 I46A
T1 receptor: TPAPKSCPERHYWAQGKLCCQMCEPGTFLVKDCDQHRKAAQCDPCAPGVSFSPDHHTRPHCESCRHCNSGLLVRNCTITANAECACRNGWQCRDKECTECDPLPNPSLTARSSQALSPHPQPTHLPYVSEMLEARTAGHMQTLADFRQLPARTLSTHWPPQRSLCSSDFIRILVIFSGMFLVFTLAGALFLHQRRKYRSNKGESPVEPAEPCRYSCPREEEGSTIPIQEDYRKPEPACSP

[2] = target: T2, D32A; experiment: flow cytometry, CHO-K1; sub-column 1 of 2
T2 construct: also called hCD27 D32A
T2 receptor: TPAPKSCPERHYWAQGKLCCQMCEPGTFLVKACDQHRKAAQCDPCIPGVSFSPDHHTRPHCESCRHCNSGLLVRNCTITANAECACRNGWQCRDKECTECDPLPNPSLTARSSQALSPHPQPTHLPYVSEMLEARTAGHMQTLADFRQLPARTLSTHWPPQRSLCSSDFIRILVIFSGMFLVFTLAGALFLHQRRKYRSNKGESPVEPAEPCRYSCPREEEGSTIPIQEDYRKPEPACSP

[3] = target: T3, P44A; experiment: flow cytometry, CHO-K1; sub-column 1 of 2
T3 construct: also called hCD27 P44A
T3 receptor: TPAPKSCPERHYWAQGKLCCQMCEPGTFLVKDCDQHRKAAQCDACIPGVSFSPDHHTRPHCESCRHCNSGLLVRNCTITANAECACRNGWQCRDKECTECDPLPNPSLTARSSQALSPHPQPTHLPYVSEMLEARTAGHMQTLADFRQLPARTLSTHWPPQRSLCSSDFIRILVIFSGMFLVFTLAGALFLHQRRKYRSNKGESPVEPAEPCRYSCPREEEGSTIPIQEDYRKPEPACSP

[4] = target: human CD27 (wild type), expressed on cells (human) (UniProt P26842); experiment: flow cytometry MFI on CD8+ T cells from peripheral blood
[5] = target: human CD27 (A59T), expressed on cells (human) (UniProt P26842); experiment: cell-based or functional assay
[6] = target: human CD27 (wild type), expressed on cells (human) (UniProt P26842); experiment: cell ELISA on transfected CHO cells
[7] = target: R37A; experiment: flow cytometry, CHO-K1; sub-column 2 of 2
[8] = target: E9A; experiment: flow cytometry, CHO-K1; sub-column 2 of 2
[9] = target: Q41A; experiment: flow cytometry, CHO-K1; sub-column 2 of 2
[10] = target: W90A; experiment: flow cytometry, CHO-K1; sub-column 2 of 2
[11] = target: R93A; experiment: flow cytometry, CHO-K1; sub-column 2 of 2
[12] = target: D43A; experiment: flow cytometry, CHO-K1; sub-column 2 of 2
[13] = target: G89A; experiment: flow cytometry, CHO-K1; sub-column 2 of 2
[14] = target: K31A; experiment: flow cytometry, CHO-K1; sub-column 2 of 2
[15] = target: R10A; experiment: flow cytometry, CHO-K1; sub-column 2 of 2
[16] = target: F28A; experiment: flow cytometry, CHO-K1; sub-column 2 of 2
[17] = target: P8A; experiment: flow cytometry, CHO-K1; sub-column 2 of 2
[18] = target: P44A; experiment: flow cytometry, CHO-K1; sub-column 2 of 2
[19] = target: R87A; experiment: flow cytometry, CHO-K1; sub-column 2 of 2
[20] = target: V49A; experiment: flow cytometry, CHO-K1; sub-column 2 of 2
[21] = target: S63A; experiment: flow cytometry, CHO-K1; sub-column 2 of 2
[22] = target: K38A; experiment: flow cytometry, CHO-K1; sub-column 2 of 2
[23] = target: W13A; experiment: flow cytometry, CHO-K1; sub-column 2 of 2
[24] = target: H60A; experiment: flow cytometry, CHO-K1; sub-column 2 of 2
[25] = target: D32A; experiment: flow cytometry, CHO-K1; sub-column 2 of 2
[26] = target: Q91A; experiment: flow cytometry, CHO-K1; sub-column 2 of 2
[27] = target: Q15A; experiment: flow cytometry, CHO-K1; sub-column 2 of 2
[28] = target: H36A; experiment: flow cytometry, CHO-K1; sub-column 2 of 2
[29] = target: V30A; experiment: flow cytometry, CHO-K1; sub-column 2 of 2
[30] = target: I46A; experiment: flow cytometry, CHO-K1; sub-column 2 of 2
[31] = target: N88A; experiment: flow cytometry, CHO-K1; sub-column 2 of 2
[32] = target: K17A; experiment: flow cytometry, CHO-K1; sub-column 2 of 2
[33] = target: G16A; experiment: flow cytometry, CHO-K1; sub-column 2 of 2
[34] = target: human CD27 (wild type), expressed on cells (human) (UniProt P26842); experiment: flow cytometry MFI on CD4+ T cells from peripheral blood
[35] = target: Macaca mulatta CD27 (mmCD27), expressed on cells (Macaca mulatta (rhesus); same entry given for cynomolgus monkey); experiment: flow cytometry MFI on CD8+ T cells from rhesus peripheral blood
Target sequence in this assay (chain, as listed by the source): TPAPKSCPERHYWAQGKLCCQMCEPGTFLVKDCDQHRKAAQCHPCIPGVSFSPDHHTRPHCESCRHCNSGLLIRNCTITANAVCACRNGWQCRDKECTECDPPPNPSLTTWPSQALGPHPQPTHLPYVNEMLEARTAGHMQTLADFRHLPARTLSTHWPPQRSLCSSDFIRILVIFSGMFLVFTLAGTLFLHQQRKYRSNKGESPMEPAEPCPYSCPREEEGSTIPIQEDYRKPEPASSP

[36] = target: human CD27 (A59T), expressed on cells (human) (UniProt P26842); experiment: cell ELISA on CD27-transfected CHOK1 cells
[37] = target: Macaca mulatta CD27 (mmCD27), expressed on cells (Macaca mulatta (rhesus); same entry given for cynomolgus monkey); experiment: cell ELISA on CD27-transfected CHOK1 cells
[38] = target: human CD27 (wild type), expressed on cells (human) (UniProt P26842); experiment: cell ELISA on CD27-transfected CHOK1 cells

% of WT hCD27 binding (geo mean FITC) [1]: 129% | % of WT hCD27 binding (geo mean FITC) [2]: 43.7% | % of WT hCD27 binding (geo mean FITC) [3]: 146%
Molecule: 1A4 (mouse IgG1) (antibody)

EC50 [4]: 1.3 nM | Emax (fold change), NF-κB-luciferase reporter assay [5]: 1.3 fold change | Fold Change values at 2.5 µg/ml, NF-κB-luciferase reporter assay [5]: 1.23 fold change | fold higher EC50 compared to 131AVH6VL6-hIgG1 [6]: 4 fold | % of WT hCD27 binding (geo mean FITC) [7]: 88% | % of WT hCD27 binding (geo mean FITC) [8]: 120% | % of WT hCD27 binding (geo mean FITC) [9]: 66.3% | % of WT hCD27 binding (geo mean FITC) [10]: 10% | % of WT hCD27 binding (geo mean FITC) [11]: 85.5% | % of WT hCD27 binding (geo mean FITC) [12]: 86.1% | % of WT hCD27 binding (geo mean FITC) [13]: 68.5% | % of WT hCD27 binding (geo mean FITC) [14]: 120% | % of WT hCD27 binding (geo mean FITC) [15]: 113% | % of WT hCD27 binding (geo mean FITC) [16]: 46.2% | % of WT hCD27 binding (geo mean FITC) [17]: 73.1% | % of WT hCD27 binding (geo mean FITC) [18]: 83.7% | % of WT hCD27 binding (geo mean FITC) [19]: 7.8% | % of WT hCD27 binding (geo mean FITC) [20]: 92.8% | % of WT hCD27 binding (geo mean FITC) [21]: 121% | % of WT hCD27 binding (geo mean FITC) [22]: 94.2% | % of WT hCD27 binding (geo mean FITC) [23]: 82.8% | % of WT hCD27 binding (geo mean FITC) [24]: 110% | % of WT hCD27 binding (geo mean FITC) [25]: 59.6% | % of WT hCD27 binding (geo mean FITC) [26]: 115% | % of WT hCD27 binding (geo mean FITC) [27]: 127% | % of WT hCD27 binding (geo mean FITC) [28]: 80% | % of WT hCD27 binding (geo mean FITC) [29]: 88.9% | % of WT hCD27 binding (geo mean FITC) [30]: 69.7% | % of WT hCD27 binding (geo mean FITC) [31]: 119% | % of WT hCD27 binding (geo mean FITC) [32]: 112% | % of WT hCD27 binding (geo mean FITC) [33]: 101% | EC50 [34]: 1.54 nM | EC50 [35]: 1.92 nM | EC50 [36]: 0.326 nM | EC50 [37]: 0.193 nM | EC50 [38]: 0.325 nM
Molecule: 1F5 hIgG1 (antibody)

% of WT hCD27 binding (geo mean FITC) [1]: 137% | % of WT hCD27 binding (geo mean FITC) [2]: 118% | % of WT hCD27 binding (geo mean FITC) [3]: 159%
Molecule: 9F4 (mouse IgG2a) (antibody)

% of WT hCD27 binding (geo mean FITC) [1]: 132% | % of WT hCD27 binding (geo mean FITC) [2]: 113% | % of WT hCD27 binding (geo mean FITC) [3]: 158%
B1: Antibody hCD27.131A (mouse parental 131A) (antibody, V domains shown)
VH: QIQLVQSGPELKKPGETVKISCKASGYTFTNYGMNWVKQAPGKGLKWMGWINTNTGEPTYAEEFKGRFAFSLETSATTAYLQINNLKNEDTATYFCAREGDAMDYWGQGTSVTVSS
VL: QIVLTQSPAIMSASPGEKVTMTCSASSSVSYMHWYQQKSGTSPKRWIYDTSKLASGVPARFSGSGSGTSYSLTISSMEAEDAATYYCQQWNSYPFTFGSGTKLEIK
notes: mouse IgG1; also called mouse hCD27.131A
